In US20140234312A1 (Genentech, published 2014):

Legend:
hNrp2 (b1b2) = target: T1, hNrp2 (b1b2) (human, UniProt O60462 275-595, limits assumed); assay: ELISA on antigen-coated plate, Anti-Nrp2^B IgG titrated, anti-human HRP detection, OD450
T1 construct: domain: b1b2; Expressed in insect cells; also called B1-B2 domains of hNrp2; b1-b2 domains of human Nrp2
T1 sequence (looked up): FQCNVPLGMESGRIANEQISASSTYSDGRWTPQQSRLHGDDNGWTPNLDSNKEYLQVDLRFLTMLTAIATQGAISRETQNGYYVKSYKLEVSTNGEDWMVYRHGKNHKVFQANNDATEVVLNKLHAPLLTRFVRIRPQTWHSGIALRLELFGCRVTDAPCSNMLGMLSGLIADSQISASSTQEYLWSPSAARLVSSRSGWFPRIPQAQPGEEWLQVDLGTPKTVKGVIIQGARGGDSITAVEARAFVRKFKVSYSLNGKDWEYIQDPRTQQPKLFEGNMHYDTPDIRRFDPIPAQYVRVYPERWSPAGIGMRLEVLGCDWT
Method: (§1) For ELISA-based binding specificity tests, three-fold serial dilutions of Anti-Nrp2^B IgGs (0.002 nM to 500 nM) in PBST buffer (PBT buffer with 0.5% (w/v) BSA) were incubated with 1 μg/ml antigen-coated 96-well Maxisorp plates for at least 1 hr, and the plates were washed with PBT buffer. Bound antibodies were detected with anti-human antibody HRP conjugates diluted 1:2500 in PBST buffer, developed with TMB substrate for approximately 5 minutes, quenched with 1M H₃PO₄, and read spectrophotometrically at 450 nm.

hNrp1 ECD = target: T2, hNrp1 ECD (human, UniProt O14786 22-856); assay: as above
T2 construct: extracellular domain
T2 sequence (looked up): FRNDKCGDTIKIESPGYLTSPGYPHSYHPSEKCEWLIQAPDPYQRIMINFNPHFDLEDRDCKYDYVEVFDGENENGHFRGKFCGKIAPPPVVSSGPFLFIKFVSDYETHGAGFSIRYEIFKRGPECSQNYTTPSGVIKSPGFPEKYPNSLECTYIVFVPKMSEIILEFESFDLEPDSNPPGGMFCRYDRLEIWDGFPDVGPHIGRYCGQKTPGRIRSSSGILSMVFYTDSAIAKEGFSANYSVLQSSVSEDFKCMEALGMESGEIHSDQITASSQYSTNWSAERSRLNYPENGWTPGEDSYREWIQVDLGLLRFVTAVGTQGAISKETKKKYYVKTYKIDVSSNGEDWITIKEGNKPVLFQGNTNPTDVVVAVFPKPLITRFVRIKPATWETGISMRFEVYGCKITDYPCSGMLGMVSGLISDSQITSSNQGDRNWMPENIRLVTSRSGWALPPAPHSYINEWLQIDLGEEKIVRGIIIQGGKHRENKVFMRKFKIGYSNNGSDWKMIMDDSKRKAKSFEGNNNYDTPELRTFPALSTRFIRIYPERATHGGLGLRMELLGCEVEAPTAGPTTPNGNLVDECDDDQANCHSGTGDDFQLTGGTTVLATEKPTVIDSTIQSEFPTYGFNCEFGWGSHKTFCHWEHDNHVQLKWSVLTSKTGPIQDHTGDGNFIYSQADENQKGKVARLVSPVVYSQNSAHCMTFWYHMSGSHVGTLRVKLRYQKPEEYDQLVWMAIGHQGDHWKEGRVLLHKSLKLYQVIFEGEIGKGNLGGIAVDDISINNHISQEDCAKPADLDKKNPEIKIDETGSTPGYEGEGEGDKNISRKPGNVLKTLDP
Method: as §1

A1-A2 domains of hNrp2 = target: T3, A1-A2 domains of hNrp2 (human, UniProt O60462 23-270, limits assumed); assay: as above
T3 construct: domain: A1-A2; also called CUB (a1-a2) domains of human Nrp2
T3 sequence (looked up): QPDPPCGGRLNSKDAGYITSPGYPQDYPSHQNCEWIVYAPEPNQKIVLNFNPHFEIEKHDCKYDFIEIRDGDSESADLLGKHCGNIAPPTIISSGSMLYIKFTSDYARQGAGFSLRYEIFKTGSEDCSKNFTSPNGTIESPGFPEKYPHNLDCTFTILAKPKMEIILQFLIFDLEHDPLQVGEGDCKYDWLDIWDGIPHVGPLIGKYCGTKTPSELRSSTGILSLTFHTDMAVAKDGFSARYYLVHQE
Method: as §1

[1] = target: T4, hNrp2 (a1a2b1b2)-Fc fusion protein (human, UniProt O60462 23-595, limits assumed); assay: as above
T4 construct: domain: a1a2b1b2; Expressed in CHO cells; The SPR text says only 'human Nrp2 (a1a2b1b2)', so it is not certain that the Fc fusion was the analyte there; also called hNrp2 ECD; human Nrp2 ECD; not shown: Fc part of the fusion
T4 sequence (looked up): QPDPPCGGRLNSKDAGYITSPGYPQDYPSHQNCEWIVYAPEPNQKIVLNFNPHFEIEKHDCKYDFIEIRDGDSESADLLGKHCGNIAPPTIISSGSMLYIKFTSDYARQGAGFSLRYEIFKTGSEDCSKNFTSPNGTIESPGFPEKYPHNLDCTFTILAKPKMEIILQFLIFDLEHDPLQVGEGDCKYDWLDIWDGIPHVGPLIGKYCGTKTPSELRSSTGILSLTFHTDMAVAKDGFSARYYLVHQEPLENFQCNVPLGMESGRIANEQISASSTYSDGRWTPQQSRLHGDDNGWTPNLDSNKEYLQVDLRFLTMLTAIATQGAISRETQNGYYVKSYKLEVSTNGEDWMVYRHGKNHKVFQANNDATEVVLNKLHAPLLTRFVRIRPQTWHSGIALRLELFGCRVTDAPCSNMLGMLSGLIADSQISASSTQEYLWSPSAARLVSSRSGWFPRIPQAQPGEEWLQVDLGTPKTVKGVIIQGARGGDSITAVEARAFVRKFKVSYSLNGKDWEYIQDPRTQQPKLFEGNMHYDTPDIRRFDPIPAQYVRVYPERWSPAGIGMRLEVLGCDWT
Method: as §1

[2] = target: T4, hNrp2 (a1a2b1b2)-Fc fusion protein; assay: competition ELISA: antibody titrated on plate-coated NRP2-Fc (5 ug/ml), competitor biotinylated VEGF165, streptavidin-HRP; blocking of VEGF165 binding
Method: (§2) To evaluate blocking Nrp2 from binding VEGF, three-fold serial dilutions of anti-Nrp2^B IgGs were first incubated with 96-well Maxisorp plate coated NRP2-Fc (5 μg/ml) in PBST buffer for 2 hr, following by adding biotinylated VEGF₁₆₅ or VEGFC (full length) for 15 minutes. The amount of biotinylated VEGF binding to Nrp2 was detected by streptavidin-HRP conjugates.

[3] = target: T4, hNrp2 (a1a2b1b2)-Fc fusion protein; assay: SPR (BIAcore-3000), human IgG1 captured on anti-human IgG CM5 chip, human Nrp2 (a1a2b1b2) injected 0.5-250 nM, 25 C, 1:1 Langmuir; human Nrp2
Method: (§3) To determine binding affinities of anti-Nrp2^B IgG1 antibodies, surface plasmon resonance (SRP) measurement with a BIAcore™-3000 instrument was used. First of all, anti-Nrp2^B human IgGs were captured by CM5 biosensor chips coated rabbit anti-human IgG to achieve approximately 200 response units (RU). For kinetics measurements, two-fold serial dilutions of mouse or human Nrp2 (a1a2b1b2) (0.5 nM to 250 nM) were injected separately in PBT buffer (PBS with 0.05% (v/v) Tween 20) at 25° C. with a flow rate of 30 μl/min. Association rates (kₒₙ) and dissociation rates (koff) were calculated using a simple one-to-one Langmuir binding model (BIAcore Evaluation Software version 3.2). The equilibrium dissociation constant (KD) was calculated as the ratio koff/kₒₙ.

mNrp2 (a1a2b1b2)-His = target: T5, mNrp2 (a1a2b1b2)-His (mouse, UniProt O35375 23-595, limits assumed); assay: SPR (BIAcore-3000), human IgG1 captured on anti-human IgG CM5 chip, mouse Nrp2 (a1a2b1b2) injected 0.5-250 nM, 25 C, 1:1 Langmuir; murine Nrp2
T5 construct: domain: a1a2b1b2; Expressed in CHO cells; also called mouse Nrp2 (a1a2b1b2); murine Nrp2; not shown: His tag
T5 sequence (looked up): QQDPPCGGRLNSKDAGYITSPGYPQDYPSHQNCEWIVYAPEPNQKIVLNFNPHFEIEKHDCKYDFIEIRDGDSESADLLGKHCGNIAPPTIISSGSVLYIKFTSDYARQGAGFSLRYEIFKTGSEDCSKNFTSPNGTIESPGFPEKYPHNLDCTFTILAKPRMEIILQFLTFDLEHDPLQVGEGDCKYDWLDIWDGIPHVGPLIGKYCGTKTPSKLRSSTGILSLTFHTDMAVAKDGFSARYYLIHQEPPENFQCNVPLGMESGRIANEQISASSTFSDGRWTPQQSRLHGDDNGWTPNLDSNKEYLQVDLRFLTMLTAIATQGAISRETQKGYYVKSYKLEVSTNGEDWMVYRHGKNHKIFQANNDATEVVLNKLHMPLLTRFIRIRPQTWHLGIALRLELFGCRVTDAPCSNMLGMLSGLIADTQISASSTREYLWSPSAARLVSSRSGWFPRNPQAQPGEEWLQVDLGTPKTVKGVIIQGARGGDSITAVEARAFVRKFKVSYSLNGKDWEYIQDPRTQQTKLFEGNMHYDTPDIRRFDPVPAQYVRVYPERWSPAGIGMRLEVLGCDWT
Method: as §3

[4] = target: T4, hNrp2 (a1a2b1b2)-Fc fusion protein; assay: blocking ELISA: plate coated with human Nrp2 ECD (5 ug/ml), antibody pre-incubated, then biotinylated human VEGFC (1 nM), streptavidin-HRP; blocked ligand VEGFC
Method: FIG. 1. Characterization of Anti-Nrp2^B mAb. (A) Schematic representation of Sema and VEGF binding regions on Nrp2 relative to Anti-Nrp2^B epitope regions. […] (C) Blocking of VEGFC binding to Nrp2 by Anti-Nrp2^B. Increasing amounts of mAb was pre-incubated with plates coated with human Nrp2 ECD (5 μg/ml) for 1-2 hrs, followed by adding pre-titrated biotinylated human VEGFC (1 nM) for 15 min. The percentage of bound VEGFC was detected by streptavidin-HRP conjugates. (D) Blocking of VEGF₁₆₅ binding to Nrp2 by Anti-Nrp2^B. (E) Blocking of Sema3F binding to LECs. LEC were incubated with conditioned media containing Sema3F fused to alkaline phosphatase (AP) (REF), in the presence or absence of Anti-Nrp2^B. AP activity derived form bound Sema3F-AP was detected colorimetrically with same development times. […] Nrp2 ECD was used as a positive control for blocking binding (right panel). Scale bar
as §2

B1: anti-Nrp2^B antibody YW68.4.2.36 (antibody, V domains shown)
VH: EVQLVESGGGLVQPGGSLRLSCAASGFTITSSGIHWVRQAPGKGLEWVARITPYDGSTDYADSVKGRFTISADTSKNTAYLQMNSLRAEDTAVYYCARYRGRLLFDYWGQGTLVTVSS
VL: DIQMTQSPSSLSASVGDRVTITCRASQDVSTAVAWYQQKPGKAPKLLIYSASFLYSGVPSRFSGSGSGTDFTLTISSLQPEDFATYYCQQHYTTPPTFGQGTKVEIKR
notes: Phage-derived human synthetic antibody; Human IgG1 was used in SPR and ELISA; also called Anti-Nrp2^B mAb; anti-Nrp2^B IgG1
For B1, the “EC50 (read off the curve)” value (hNrp2 (b1b2)) was about 0.3 nM, the binding result (hNrp1 ECD) was “no binding (tested: 500 nM)” and the binding result (A1-A2 domains of hNrp2) was “no binding (tested: 500 nM)”. The “EC50 (read off the curve)” value [1] was about 0.2 nM, the IC50 [2] was 0.1 nM and the Kd [3] was 5.3 nM. The Kd (mNrp2 (a1a2b1b2)-His) was 4.9 nM and the “IC50 (read off the curve)” value [4] was about 0.1 nM.
